# Experimental data from patent US20080221021A1 (published 2008).
# Where no end group is shown, it is not given here.
# T1: rat CRFBP C-terminally fused with a His6 sequence (rat, UniProt P24388 25-322)
# T1 chain: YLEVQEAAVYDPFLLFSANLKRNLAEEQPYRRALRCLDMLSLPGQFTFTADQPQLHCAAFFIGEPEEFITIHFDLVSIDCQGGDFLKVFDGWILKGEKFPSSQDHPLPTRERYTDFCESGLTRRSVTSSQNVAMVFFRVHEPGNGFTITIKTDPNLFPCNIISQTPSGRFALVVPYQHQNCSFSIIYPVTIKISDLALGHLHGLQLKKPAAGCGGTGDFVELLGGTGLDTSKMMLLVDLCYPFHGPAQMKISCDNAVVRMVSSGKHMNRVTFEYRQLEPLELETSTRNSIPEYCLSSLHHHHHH
# B1: human/rat corticotropin-releasing factor (peptide)
# peptide: SEEPPISLDLTFHLLREVLEMARAEQLAQQAHSNRKLMEII
# modifications: not fully specified
# Biological target: T1, rat CRFBP C-terminally fused with a …
# Test: competition binding
binder,measurement,value
B1,IC50,0.54 nM
